Assay results reported in the supplement of paper PMC9170038.

Test system: MS2 coat protein
Test: apparent KD of MS2 coat protein; higher = weaker reporter binding
Conditions: Eterna round: R107
Summary of the method: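 Titrations with SNAP-549-labelled MS2 coat protein ran in twofold steps from 0.7 or 1.5 nM to 3 µM, each step taking 0.8–1.5 h at the start and 10–20 min toward the end. The targets were designed RNA switches transcribed on-chip from Illumina sequencing clusters, held in 100 mM Tris-HCl pH 7.5, 80 mM KCl, 4 mM MgCl2, without or with constant ligand. Apparent KD was taken per design as the median of normalised cluster binding-curve fits.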

[1] = input ligand: theophylline 20 uM
[2] = input ligand: theophylline 2 mM
[3] = input ligand: tryptophan 2.4 mM

Sequence | apparent KD of MS2 coat protein (input ligand: arginine 13.2 mM) | apparent KD of MS2 coat protein (input ligand: none) | apparent KD of MS2 coat protein [1] | apparent KD of MS2 coat protein [2] | apparent KD of MS2 coat protein [3]
UGUUUGGUGCGCGAGUGUUGGAUAAUUGAUACCAGUGAAGAAGAGCGCCCUUGGCAGCGAAUCCUAACAUGAGGAUCACCCAUGU [5.U] | 41.5 nM | 39.7 nM | 84.8 nM | 51.7 nM | 39 nM
AGCAACAAGUCGGCCGCCACUCUUUUUACAUGAGGAUCACCCAUGUUUAUAUCAUGGUCUUAAUAGAGGACCGGGACAGUUGCAU [JR_ExcTryptoB_Sub006] | 28.6 nM | – | 53.7 nM | 46.9 nM | –
GCUGCCAUACGAAGGAGCGCUGCUGCGAUGUGGCGAACAUGAGGAUCACCCAUGUGGCAGCAGCAGGUAGGUCGCGUAUGGCAGC [#01 Exclusion - Arginine B] | 131 nM | 144 nM | 489 nM | 259 nM | 198 nM
CACGAAAGAUCGGCCGCCACUAUUUGAUGUGUUCUUUCACAUGAGGAUCACCCAUGUUCUUUCUUUAGGACCGGGAUUGAGCGUG [ETB #1] | 88.8 nM | – | 126 nM | 162 nM | –
ACGUGCAGCAGAAGGAGCGUCUUAAUUCUACAUGAGGAUCACCCAUGUUUACAUUGGAUAUGACAGGUAGGUCGCUGAAGUACGA [#05 Same State - Arginine B] | 36.2 nM | 30 nM | 41.7 nM | 37.2 nM | 18 nM
CUGCCACAGAUAGAUACCAGAGGCGUGCAAGCUACAGCUCACAUGAGGAUCACCCAUGUUCUCCCUUGGCAGCUACGGUGUAAGG [theeternabot_exclusion_MS2_Theo_B_26] | 17.1 nM | – | 24 nM | – | 19.4 nM
UCGGACAUGAGGAUCACCCAUGUAAAUCCUCGAGGACCGGUACGGCCGCCACUCGAACGAGUGGCACGCGAGUGCGCACUCGCGU [aEa] | 24.1 nM | – | 47.8 nM | 34 nM | –
UAUAUAUAGAUGGAUACCAGCAGAGAAAACGUUUAUCCUAACAUGAGGAUCACCCAUGUAUGCCCUUGGCAGCUGUUUAUAUAUA [8.I] | 18.9 nM | – | 31.5 nM | – | 22.6 nM
UGGGUACCGACGGCCGCCACUGAAUAUAGACAUGAGGAUCACCCAUGUAGAGAUCCUAGAAUAAACAGGACCGGGUCUGGUGCUA [Exclusion Tryptophane B GF5] | 92.4 nM | – | 239 nM | 293 nM | –
GUAUCGACAUGAGGAUCACCCAUGUCCGAAGGAGCGUUGGGAACAACAGGUAGGUCGCGGACAUAGAGCAUCCGGAAACGGAUGC [EAA NP+V+V2 #1] | 10.1 nM | 14 nM | 16.4 nM | 34.3 nM | 13.9 nM
GGAUAGGACAGAAGGAGCGACAUCGCCGAAAGGCUGGUAAGAUCACAUGAGGAUCACCCAUGUCAGGUAGGUCGCUGUCCUAUCG [ArgXB 11 #Zipper #MS2Left #StaticStem #Blueprint] | 92.2 nM | 283 nM | 360 nM | 627 nM | 308 nM
GGCACCAGGAGAAGGAGCGUGAAGACAUGAGGAUCACCCAUGUAGAGGCCCGUACCGGGUUCGCAGGUAGGUCGCUCCUGGUGCC [#1 Same State - Arginine B Attempt #14 (HarryS)] | 19.2 nM | 23 nM | 38.1 nM | 27.1 nM | 24.2 nM
UAAUAGAUUACGGCCGCCACUGAAGUGGACUUUAUGAGCAGGAUUCACAUGAGGAUCACCCAUGUCAGGACCGGGUACGUCCAUA [theeternabot_exclusion_MS2_Trp_B_33] | 25.6 nM | – | 44 nM | 44.3 nM | –
AUGUCUGAGUCGGCCGCCACUGGGUGUGGGUGAUGCCGGAUGUUGUACAUGAGGAUCACCCAUGUCAGGACCGGGAUUCCCACGA [Receve] | 6.2 nM | 10.4 nM | 12.7 nM | 8.73 nM | 10.2 nM
UCGGGCAGAGCGGCCGCCACUGUUUGGCAUGCGGAUGAAGGAACAUGAGGAUCACCCAUGUAGAUUAGGACCGGGCUUGCGGAGA [rvcmullin] | 19.1 nM | 18.2 nM | 22.1 nM | 23.8 nM | 19.5 nM
GGAUAGGACAGAAGGAGCGACAUGCGACGAAAGUCGAAAAGAUCACAUGAGGAUCACCCAUGUCAGGUAGGUCGCUGUCCUAUCG [ArgXB 10 #Zipper #MS2Left #StaticStem #Blueprint] | 119 nM | 127 nM | 115 nM | 154 nM | 89.9 nM
